Test results published in patent publication US6706266, “Oncostatin M antagonists” (SmithKline Beecham Corporation).
Substitutions are numbered along the chain they refer to. Numbers in names are those of the source. Where “and” joins values, the source holds several entries; their conditions need not be identical. Identical values can stand only once.

T1: gp130 on HepG2 B6 cells (UniProt P40189 23-918, limits assumed)
T1 sequence (looked up): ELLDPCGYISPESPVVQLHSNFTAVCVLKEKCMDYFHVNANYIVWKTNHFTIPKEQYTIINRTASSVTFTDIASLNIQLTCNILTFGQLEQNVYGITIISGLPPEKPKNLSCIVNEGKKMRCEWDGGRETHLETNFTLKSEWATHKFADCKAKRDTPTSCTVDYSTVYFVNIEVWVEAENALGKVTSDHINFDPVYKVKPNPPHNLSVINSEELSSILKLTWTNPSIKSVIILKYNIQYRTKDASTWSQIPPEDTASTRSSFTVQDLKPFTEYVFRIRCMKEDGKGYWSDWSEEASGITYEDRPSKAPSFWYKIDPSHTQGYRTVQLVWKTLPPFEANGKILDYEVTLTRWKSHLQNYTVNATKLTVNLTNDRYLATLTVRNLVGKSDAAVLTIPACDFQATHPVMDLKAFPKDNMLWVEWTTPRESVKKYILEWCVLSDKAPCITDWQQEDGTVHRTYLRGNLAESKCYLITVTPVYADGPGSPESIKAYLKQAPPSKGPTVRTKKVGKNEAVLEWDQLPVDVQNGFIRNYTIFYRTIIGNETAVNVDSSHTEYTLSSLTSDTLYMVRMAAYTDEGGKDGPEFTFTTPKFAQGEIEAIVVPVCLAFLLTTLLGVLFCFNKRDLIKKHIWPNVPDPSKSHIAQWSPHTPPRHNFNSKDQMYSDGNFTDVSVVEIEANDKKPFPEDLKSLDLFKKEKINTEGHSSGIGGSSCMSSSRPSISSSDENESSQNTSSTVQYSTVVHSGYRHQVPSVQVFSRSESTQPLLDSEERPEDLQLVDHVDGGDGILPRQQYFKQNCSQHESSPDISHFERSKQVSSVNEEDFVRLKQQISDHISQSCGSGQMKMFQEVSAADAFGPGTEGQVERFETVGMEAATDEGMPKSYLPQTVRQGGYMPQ

T2: gp130-Fc fusion protein (human, UniProt P40189 23-619)
T2 construct: extracellular domain; not shown: Fc fragment of human IgG1
T2 sequence (looked up): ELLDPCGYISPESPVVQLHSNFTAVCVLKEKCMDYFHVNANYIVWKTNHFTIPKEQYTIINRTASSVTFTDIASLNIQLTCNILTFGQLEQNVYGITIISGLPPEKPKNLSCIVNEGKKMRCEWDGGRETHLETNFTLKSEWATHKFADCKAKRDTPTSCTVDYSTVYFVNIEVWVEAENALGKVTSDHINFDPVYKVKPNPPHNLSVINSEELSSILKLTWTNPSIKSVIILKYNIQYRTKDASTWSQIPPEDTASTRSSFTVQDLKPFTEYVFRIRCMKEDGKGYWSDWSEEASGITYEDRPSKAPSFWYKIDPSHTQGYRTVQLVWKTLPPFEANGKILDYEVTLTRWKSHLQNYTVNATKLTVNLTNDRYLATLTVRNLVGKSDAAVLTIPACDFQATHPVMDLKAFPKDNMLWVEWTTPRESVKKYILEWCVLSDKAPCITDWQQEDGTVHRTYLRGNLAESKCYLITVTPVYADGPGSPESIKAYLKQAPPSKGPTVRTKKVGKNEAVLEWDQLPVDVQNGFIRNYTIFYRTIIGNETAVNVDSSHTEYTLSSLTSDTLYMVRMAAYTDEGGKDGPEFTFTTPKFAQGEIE

B1: wild type OSM-GST fusion (ligand)
chain: AAIGSCSKEYRVLLGQLQKQTDLMQDTSRLLDPYIRIQGLDVPKLREHCRERPGAFPSEETLRGLGRRGFLQTLNATLGCVLHRLADLEQRLPKAQDLERSGLNIEDLEKLQMARPNILGLRNNIYCMAQLLDNSDTAEPTKAGRGASQPPTPTPASDAFQRKLEGCRFLHGYHRFMHSVGRVFSKWGESPNRSRR
notes: pGEX-derived fusion; also called wt OSM-GST; GST-hOSM; not shown: glutathione S-transferase (GST) encoded by modified pGEX-3X (Pharmacia), N-terminal, up to the Factor Xa site region sho
B2: OSM-GST mutant D22A (ligand, not shown: a dimerising Fc or GST; large carriers; small tags and cut ends)
chain: B1 chain with D22A
notes: Alanine mutant of m4; also called (15)D22; 15 D22
B3: OSM-GST mutant P116A (ligand, not shown: a dimerising Fc or GST; large carriers; small tags and cut ends)
chain: B1 chain with P116A
notes: Alanine mutant of m4; also called (17)P116A; 17 P116A
B4: OSM-GST mutant L14A (ligand)
chain: B1 chain with L14A
notes: Alanine mutant of m4; also called (7)L14A; 7 L14A; not shown: Its linker is left out
B5: OSM-GST mutant N124A (ligand, not shown: a dimerising Fc or GST; large carriers; small tags and cut ends)
chain: B1 chain with N124A
notes: Alanine mutant of m4; also called (23)N124A; 23 N124A
B6: OSM-GST mutant L119A (ligand, not shown: a dimerising Fc or GST; large carriers; small tags and cut ends)
chain: B1 chain with L119A
notes: Alanine mutant of m4; also called (19)L119A; 19 L119A
B7: OSM-GST mutant G15A (ligand)
chain: B1 chain with G15A
notes: Alanine mutant of m4; also called (8)G15A; 8 G15A; not shown: Its linker is left out
B8: OSM-GST mutant K19A (ligand)
chain: B1 chain with K19A
notes: Alanine mutant of m4; also called (12)K19A; 12 K19A; not shown: Its linker is left out
B9: OSM-GST mutant M113A (ligand, not shown: a dimerising Fc or GST; large carriers; small tags and cut ends)
chain: B1 chain with M113A
notes: Alanine mutant of m4; also called (16)M113; 16 M113A
B10: OSM-GST mutant D26A (ligand, not shown: a dimerising Fc or GST; large carriers; small tags and cut ends)
chain: B1 chain with D26A
notes: Alanine mutant of m4; also called (27)D26A; 27 D26A
B11: OSM-GST mutant L17A (ligand)
chain: B1 chain with L17A
notes: Alanine mutant of m4; also called (10)L17A; 10 L17A; not shown: Its linker is left out
B12: OSM-GST mutant K8A (ligand, not shown: a dimerising Fc or GST; large carriers; small tags and cut ends)
chain: B1 chain with K8A
notes: Alanine mutant of m4; also called (2)K8A; 2 K8A
B13: OSM-GST mutant E9A (ligand, not shown: a dimerising Fc or GST; large carriers; small tags and cut ends)
chain: B1 chain with E9A
notes: Alanine mutant of m4; also called (3)E9A; 3 E9A
B14: OSM-GST mutant N123A (ligand, not shown: a dimerising Fc or GST; large carriers; small tags and cut ends)
chain: B1 chain with N123A
notes: Alanine mutant of m4; also called (22)N123A; 22 N123A
B15: OSM-GST mutant N117A (ligand, not shown: a dimerising Fc or GST; large carriers; small tags and cut ends)
chain: B1 chain with N117A
notes: Alanine mutant of m4; also called (18)N117A; 18 N117A
B16: OSM-GST mutant L13A (ligand)
chain: B1 chain with L13A
notes: Alanine mutant of m4; also called (6)L13A; 6 L13A; not shown: Its linker is left out
B17: OSM-GST mutant G120A (ligand, not shown: a dimerising Fc or GST; large carriers; small tags and cut ends)
chain: B1 chain with G120A
notes: Alanine mutant of m4; also called (20)G120; 20 G120A
B18: OSM-GST mutant Q20A (ligand)
chain: B1 chain with Q20A
notes: Alanine mutant of m4; also called (13)Q20A; 13 Q20A; not shown: Its linker is left out
B19: OSM-GST mutant Q16A (ligand)
chain: B1 chain with Q16A
notes: Alanine mutant of m4; also called (9)Q16A; 9 Q16A; not shown: Its linker is left out

target: T1, gp130 on HepG2 B6 cells; assay: cell-based or functional assay

In order of falling “sPAP HepG2 B6 assay: Expt 1 % (EC50 as % of wild type EC50)” value:
1. B11  301%
2. B16  269%
3. B15  241%
4. B14  157%
5. B2  152%
6. B5  125%
7. B6  115%
8. B9  106%
9. B3  104%
10. B1  100%
11. B8  98%
12. B13  98%
13. B7  87%
14. B4  81%
15. B10  81%
16. B12  66%

In order of falling “sPAP HepG2 B6 assay: Expt 1 EC50” value:
1. B11  0.0727 µg/mL
2. B16  0.0657 µg/mL
3. B15  0.058 µg/mL
4. B14  0.0379 µg/mL
5. B2  0.0367 µg/mL
6. B5  0.0302 µg/mL
7. B6  0.0278 µg/mL
8. B9  0.0256 µg/mL
9. B3  0.025 µg/mL
10. B1  0.024 µg/mL
11. B8  0.0236 µg/mL
12. B13  0.0236 µg/mL
13. B7  0.021 µg/mL
14. B10  0.0195 µg/mL
15. B4  0.0194 µg/mL
16. B12  0.016 µg/mL

In order of rising “sPAP HepG2 B6 assay: Expt 2 % (EC50 as % of wild type EC50)” value:
1. B13  27%
2. B8  37%
3. B12  38%
4. B3  47%
5. B2  50%
6. B7  55%
7. B6  72%
8. B4  77%
9. B9  78%
10. B10  79%
11. B1  100%
12. B5  113%
13. B15  132%
14. B14  154%
15. B16  171%
16. B11  174%

In order of falling “sPAP HepG2 B6 assay: Expt 2 EC50” value:
1. B11  0.056 µg/mL
2. B16  0.0549 µg/mL
3. B14  0.0497 µg/mL
4. B15  0.0425 µg/mL
5. B5  0.0362 µg/mL
6. B1  0.032 µg/mL
7. B10  0.0255 µg/mL
8. B9  0.025 µg/mL
9. B4  0.0249 µg/mL
10. B6  0.023 µg/mL
11. B7  0.0178 µg/mL
12. B2  0.016 µg/mL
13. B3  0.015 µg/mL
14. B12  0.0125 µg/mL
15. B8  0.0119 µg/mL
16. B13  0.0089 µg/mL

In order of rising “sPAP HepG2 B6 assay: Mean % of wild type EC50” value:
1. B12  52%
2. B13  62.5%
3. B8  67.5%
4. B7  71%
5. B3  75.5%
6. B4  79%
7. B10  80%
8. B9  92%
9. B6  93.5%
10. B1  100%
11. B2  101%
12. B5  119%
13. B14  156%
14. B15  186%
15. B16  220%
16. B11  238%

target: T2, gp130-Fc fusion protein; assay: competition ELISA: OSM-GST titrated against plate-bound wt OSM for gp130-Fc; mean
Protocol: (§1) Plates were washed (×6 in PBS 0.05% tween 20, using Skatron Plate washer), tapped dry and blocked to reduce non-specific binding (200 µl/well, 1% BSA/PBS). Following 1 h incubation (room temperature on a shaking platform) the plates were tapped dry and wild type (wt) or mutant OSM-GST from Example 9b added (50 µl/well, 20–0.002 µg/ml, titrated in 1%BSA/PBS). As a positive control polyclonal anti-human OSM antibody (R&D Systems) was also tested (20–0.02 µg/ml). […] Following a 5 h incubation (room temperature on a shaking platform) the plates were washed (×6) and developed using ELISA Amplification System (Life Technologies) as manufacturer's instructions and the OD measured at 490 nm.

In order of rising IC50:
1. B2  0.071 µg/mL
2. B8  0.116 µg/mL
3. B12  0.138 µg/mL
4. B1  0.139 µg/mL
5. B7  0.155 µg/mL
6. B13  0.156 µg/mL
7. B3  0.199 µg/mL
8. B6  0.255 µg/mL
9. B10  0.31 µg/mL
10. B9  0.321 µg/mL
11. B4  0.514 µg/mL
12. B15  0.785 µg/mL
13. B11  1.82 µg/mL
14. B5  1.99 µg/mL
15. B16  2.53 µg/mL
16. B14  2.96 µg/mL
17. B17  3.09 µg/mL
18. B18  5 µg/mL

target: T2, gp130-Fc fusion protein; assay: competition ELISA: OSM-GST titrated against plate-bound wt OSM for gp130-Fc; single experiment
Protocol: as §1

With B2 the IC50 was 0.04 µg/mL and 0.08 µg/mL and 0.092 µg/mL.
With B3 the IC50 was 0.232 µg/mL and 0.169 µg/mL and 0.197 µg/mL.
In the case of B4, the IC50 is reported as 0.66 µg/mL and 0.47 µg/mL and 0.412 µg/mL.
In the case of B5, the IC50 is reported as 1.63 µg/mL and 1.95 µg/mL and 2.38 µg/mL.
For B17, the IC50 was 3.65 µg/mL and 2.68 µg/mL and 2.95 µg/mL.
B6 was tested, and the IC50 was 0.272 µg/mL and 0.266 µg/mL and 0.227 µg/mL.
B7 was tested, and the IC50 was 0.09 µg/mL and 0.203 µg/mL and 0.171 µg/mL.
B9 was tested, and the IC50 was 0.511 µg/mL and 0.199 µg/mL and 0.252 µg/mL.
B10 was tested, and the IC50 was 0.17 µg/mL and 0.28 µg/mL and 0.481 µg/mL.
In the case of B11, the IC50 is reported as 2.21 µg/mL and 1.9 µg/mL and 1.35 µg/mL.
For B13, the IC50 was 0.208 µg/mL and 0.163 µg/mL and 0.097 µg/mL.
In the case of B18, the IC50 is reported as 4.13 µg/mL and 5.57 µg/mL and 4.1 µg/mL and 6.2 µg/mL.
B15 was tested, and the IC50 was 0.983 µg/mL and 0.756 µg/mL and 0.617 µg/mL.
With B16 the IC50 was 2.96 µg/mL and 1.99 µg/mL and 2.64 µg/mL.

B19 was tested, and the IC50 was over 10 µg/mL.
